# Laboratory results: the supplement of paper PMC10126150
# ± gives the standard deviation of the averaged measurements.
# System: ATP
# Test: switch fluorescence ratio, 500 uM ATP over buffer (Cy3 cluster intensity, sum of 5 cycles each) (fold (ratio)); higher = stronger signal-on switching upon ATP binding; sequences stand for … in TCGTCGGCAGCGTCAGATGTGTATAAGAGACAGTTTTTTTTTTTTTTTTTTTTTTTTT…TC
# Conditions: aptamer strand: ATP DNA aptamer (quencher-CACCTGGGGGAGTATTGCGGAGGAAGG + anchor), 100 nM annealed; ATP concentration: 500 uM
# Method in brief: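 The fluorescence ratio divides summed target-cycle Cy3 intensity by summed buffer-cycle Cy3 intensity for each cluster and is averaged per switch-domain sequence. Cy3-labelled switching-strand clusters on a modified Illumina MiSeq flow-cell were annealed to 100 nM quencher-labelled ATP aptamer, then imaged in selection buffer and again after 15 min with 500 uM ATP at 22 °C. Five such cycles were run, with NaOH stripping and re-annealing between them, and clusters outside 100-1000 RFU were excluded.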
# 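Also: ATP exposure 15 min at 22 °C before imaging.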
row,Sequence,switch fluorescence ratio
1,GCCTTTCAAT,1.024 ± 0.0015
2,GCCTTTGGCT,0.996 ± 0.049
3,GCCTTTTGCA,1.01 ± 0.03
4,GCCTTTTTTA,0.996 ± 0.016
5,GCGAAAACAG,1 ± 0.088
6,GCGAAAAGGA,1.02 ± 0.011
7,GCGAACGGAG,0.998 ± 0.011
8,GCGAATATCT,1.02 ± 0.037
9,GCGACGGGAG,1.01 ± 0.013
10,GCGACTAGGT,1.03 ± 0.028
11,GCGAGACTGT,1.07 ± 0.04
12,GCGAGATGGG,0.9735 ± 0.0013
13,GCGAGCGTCC,1.025 ± 0.0023
14,GCGAGGGCAA,1.72 ± 0.052
15,GCGAGGGGGT,0.979 ± 0.054
16,GCGAGTTGGG,0.985 ± 0.022
17,GCGATAAATT,0.983 ± 0.045
18,GCGATAATTT,0.9975 ± 0.0076
19,GCGATACGCA,1.07 ± 0.041
20,GCGATCAGAC,1.15 ± 0.015
21,GCGATGGAAT,1.1282 ± 6e-05
22,GCGATGGCTG,0.957 ± 0.015
23,GCGATTAGTT,0.9711 ± 0.0012
24,GCGATTGGCT,1.06 ± 0.018
25,GCGATTTAGA,0.994 ± 0.016

row,Sequence,switch fluorescence ratio
1,GCGATTTTTA,1.09 ± 0.089
2,GCGCAGGTAA,1.04 ± 0.013
3,GCGCAGTGGC,1.23 ± 0.058
4,GCGCCAAGGA,1.08 ± 0.09
5,GCGCCAGTTT,0.992 ± 0.02
6,GCGCCCATCT,1.02 ± 0.017
7,GCGCCTTGTG,0.988 ± 0.018
8,GCGCGAGGGG,1.01 ± 0.02
9,GCGCGATGGA,1.03 ± 0.019
10,GCGCGGGGGG,1.02 ± 0.03
11,GCGCGTAGGC,1 ± 0.021
12,GCGCGTCGCA,1.02 ± 0.025
13,GCGCGTGGAG,1.04 ± 0.03
14,GCGCTCGAGT,1.018 ± 0.0074
15,GCGCTCTTAT,1.001 ± 0.003
16,GCGCTGCATT,1.06 ± 0.037
17,GCGCTTAAAT,1.03 ± 0.057
18,GCGGACCCTC,1.03 ± 0.05
19,GCGGACTAGT,0.9883 ± 0.0052
20,GCGGAGAGAG,0.998 ± 0.019
21,GCGGAGGCGG,0.976 ± 0.031
22,GCGGAGGGGC,1.0106 ± 3e-05
23,GCGGAGGGTG,1.028 ± 0.0092
24,GCGGATGTAG,1.01 ± 0.03
25,GCGGATTAGG,1.03 ± 0.0072

row,Sequence,switch fluorescence ratio
1,GCGGCACATA,1.09 ± 0.042
2,GCGGCAGGGA,0.997 ± 0.049
3,GCGGCGCTTA,1.02 ± 0.016
4,GCGGCGGGTT,1.04 ± 0.064
5,GCGGCGGTGC,1.02 ± 0.031
6,GCGGCTGATG,1.02 ± 0.012
7,GCGGGAATTG,0.981 ± 0.023
8,GCGGGAGGTC,1.03 ± 0.013
9,GCGGGATGCA,0.993 ± 0.033
10,GCGGGCCTGG,1.01 ± 0.037
11,GCGGGCTGGA,1.01 ± 0.044
12,GCGGGGAAAT,0.971 ± 0.021
13,GCGGGGAATT,1.02 ± 0.026
14,GCGGGGCTAG,0.989 ± 0.024
15,GCGGGGGATC,1 ± 0.03
16,GCGGGGGCAA,1.0292 ± 0.00013
17,GCGGGGGGAG,1.02 ± 0.043
18,GCGGGGGGGT,1.01 ± 0.038
19,GCGGGGGGTT,1.01 ± 0.038
20,GCGGGGGTG,1.01 ± 0.013
21,GCGGGGGTTG,0.978 ± 0.039
22,GCGGGGTAGG,1.015 ± 0.0099
23,GCGGGGTCGG,1.0083 ± 0.00048
24,GCGGGGTCTG,0.985 ± 0.04
25,GCGGGGTTGC,1.03 ± 0.033

row,Sequence,switch fluorescence ratio
1,GCGGGTGGGG,1.05 ± 0.029
2,GCGGGTTAAA,0.991 ± 0.012
3,GCGGTAAGGG,1.016 ± 0.004
4,GCGGTACGCG,0.953 ± 0.012
5,GCGGTACGGT,1.03 ± 0.039
6,GCGGTAGGG,1.02 ± 0.0055
7,GCGGTCAAAT,1.005 ± 0.0018
8,GCGGTCCGTT,0.9614 ± 0.0012
9,GCGGTGAGGG,0.993 ± 0.052
10,GCGGTGGGTG,0.994 ± 0.023
11,GCGGTTCAGC,0.985 ± 0.014
12,GCGGTTCAGT,1.0109 ± 0.00081
13,GCGGTTCGTA,0.9699 ± 0.0018
14,GCGGTTTCAT,0.9984 ± 0.0098
15,GCGGTTTCCT,1.02 ± 0.037
16,GCGTAAAACG,0.977 ± 0.04
17,GCGTAAAATT,0.9737 ± 0.0057
18,GCGTAAGACC,1.07 ± 0.06
19,GCGTAAGCGG,0.981 ± 0.017
20,GCGTAAGGAG,1.06 ± 0.096
21,GCGTAGGGGG,0.95 ± 0.046
22,GCGTATACGC,1.04 ± 0.041
23,GCGTATATTA,0.998 ± 0.036
24,GCGTATCGCG,0.985 ± 0.035
25,GCGTCAGGAT,1.0442 ± 0.00058
